Measured values published in the supplement of paper PMC10567573.

B1: ETS2 (parent)
chain: TSGKRYVYRFVCDLQNLLGFTPEE
B2: PPEF2 (parent)
chain: FIPSSHNDRDFLTRIFTEDRFAQD

Variants of: B1
Test: protein stability index of a GFP-peptide fusion (GPS, HEK-293T) (PSI 1-6); higher = more stable
Details: c terminus: a fixed tail appended
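Also: lentivirally expressed fusions sorted by FACS into six bins by GFP to DsRed ratio, PSI derived from sequencing read proportions per bin multiplied by bin number.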

Variant | protein stability index
V7E | 1.3
V7Q | 1.98
V7D | 1.46
V7P | 1.84
V7A | 1.29
V7T | 2.57
V7W | 2.61
V7N | 1.25
V7R | 1.03
V7L | 2.22
V7H | 2.04
V7M | 3.69
V7F | 2.25
V7S | 2.83
V7K | 2.3
L14A | 3.91
L14C | 2.07
L14E | 3.19
L14F | 2.08
L14D | 3.01
Y8H | 2.15
Y8P | 2.28
Y8C | 1.35
Y8M | 2.93
Y8I | 2.56
Y8V | 2.5

Variant | protein stability index
Y8N | 3.26
Y8Q | 2.02
Y8G | 2.15
Y8E | 2.67
Y8K | 2.11
Y8R | 2.23
Y8D | 2.78
Y8L | 1.75
Y8S | 2.23
Y8T | 2.29
Y8F | 1.55
Y8W | 2.01
Y8A | 2.12
C12S | 2.9
C12N | 3.4
C12V | 2.39
C12A | 1.92
C12I | 1.96
C12M | 1.25
C12H | 2.31
C12G | 2.04
C12E | 1.76
C12W | 2.21
C12T | 2.17
C12D | 1.72
C12F | 1.68

Variant | protein stability index
C12Q | 2.57
C12P | 2.05
C12K | 2.98
C12L | 2.03
C12Y | 1.77
C12R | 2.58
G3L | 1.65
G3E | 1.78
G3K | 1.7
G3H | 2.83
G3T | 1.86
G3N | 2.77
G3Y | 2.09
G3I | 2.11
G3R | 2
G3C | 1.81
G3F | 2.33
G3D | 3.19
G3S | 2.36
G3A | 2.96
G3M | 2.08
G3W | 1.65
G3Q | 2.31
G3P | 1.5
G3V | 1.86
S2R | 1.77

Variant | protein stability index
S2K | 2.29
S2C | 1.64
S2A | 1.74
S2G | 2.02
S2N | 3.49
S2L | 3
S2D | 2.89
S2E | 2.33
S2F | 2.74
S2H | 2.62
S2W | 4.44
S2M | 2.6
S2V | 1.83
S2I | 3.22
S2Q | 1.85
S2P | 2.25
D13G | 2.41
D13S | 1.57
D13P | 3.25
D13C | 2.22
D13F | 2.96
D13Y | 2.37
D13T | 2.99
D13Q | 2.46
D13N | 1.77
D13I | 2.81

Variant | protein stability index
D13W | 2.98
D13H | 1.79
D13K | 2.48
D13L | 2.22
D13V | 2.33
D13R | 2.11
D13A | 2.67
D13E | 2.11
R9K | 1.85
R9D | 1.66
R9Q | 1.72
R9M | 3
R9G | 1.58
R9L | 1.48
R9C | 1.53
R9S | 1.92
R9E | 1.78
R9Y | 1.79
R9V | 2.4
R9H | 1.65
R9A | 1.45
R9N | 1.77
R9I | 1.68
R9T | 2.15
R9F | 1.06
R9P | 2.48

Variant | protein stability index
R9W | 1.96
R5I | 3.19
R5V | 1.72
R5K | 3.18
R5F | 3.19
R5P | 1.52
R5Y | 2.88
R5N | 3.24
R5D | 2.05
R5A | 2.44
R5S | 2.87
R5E | 1.69
R5G | 3.53
K4P | 1.83
K4Q | 1.7
K4D | 2.24
K4L | 2.8
K4H | 2.06
K4I | 1.36
K4Y | 3.33
K4A | 2.29
K4G | 2.54
K4M | 1.74
K4N | 2.34
K4F | 2.34
K4C | 2.58

Variant | protein stability index
K4T | 2.17
K4W | 2.72
K4V | 2
K4E | 1.72
K4R | 3.33
V11E | 2.61
V11Y | 2.14
V11R | 1.57
V11N | 2.67
V11T | 2.36
V11F | 2.56
V11W | 2.14
V11M | 2.85
V11S | 2.02
V11P | 2.85
V11H | 2.07
V11Q | 1.94
V11I | 2.64
V11L | 2.82
V11K | 2.15
V11C | 3.14
V11D | 2.59
V11A | 3.07
T1M | 1.86
T1W | 2.1
T1Y | 1.71

Variant | protein stability index
T1H | 2.12
T1S | 2.4
T1G | 2.08
T1R | 2.29
T1E | 2.38
T1K | 1.66
T1P | 1.94
T1Q | 1.94
T1N | 1.82
T1I | 2.6
T1C | 1.7
F10Q | 2.7
F10I | 2.02
F10P | 2.59
F10D | 3.9
F10E | 2.75
F10M | 2.06
F10H | 2.04
F10A | 2.02
F10S | 3.37
F10K | 3.16
F10R | 3.5
F10L | 1.8
F10T | 2.26
F10C | 2.06
F10Y | 3.17

Variant | protein stability index
F10W | 2.42
F10G | 2.57
F10N | 3.32
Y6T | 2.3
Y6R | 2.31
Y6L | 3.25
Y6H | 2.41
Y6N | 1.52
Y6A | 1.43
Y6Q | 1.86
Y6C | 2.26
Y6E | 1.4
Y6S | 2.26
Y6V | 2.61
Y6I | 4.21
Y6F | 2.91
Y6G | 1.35
Y6P | 2.59
Y6D | 1.52

Variants of: B2
Test: as above
Details: c terminus: a fixed tail appended

Variant | protein stability index
R20H | 3.22
R20G | 1.69
R20D | 2.42
F16L | 1.91
F16D | 2.18
D8R | 2.25
D8V | 2.08
D8Q | 2.15
D8M | 1.93
D8K | 1.53
D8P | 1.89
D8N | 1.99
H6V | 1.5
H6Q | 1.73
H6I | 2.44
H6F | 1.21
H6C | 1.61
H6D | 2.56
H6S | 1.91
T17V | 1.85
T17E | 2.19
T17I | 2.08

Variant | protein stability index
T17Q | 1.79
T17L | 2.65
T17M | 2.54
Q23K | 2.33
Q23N | 2.68
Q23D | 1.72
Q23G | 1.89
Q23E | 2.06
R9D | 2.18
R9H | 1.54
R9S | 1.98
R9Q | 1.53
R9C | 2.23
R9E | 1.89
R14N | 2.12
R14K | 1.55
R14M | 2.55
R14P | 2.81
A22Y | 1.61
A22W | 3.33
A22N | 2.59
A22E | 2.2

Variant | protein stability index
A22H | 1.83
A22R | 2.16
A22T | 1.93
A22V | 2.56
A22K | 3.16
F11P | 2.16
F11I | 1.8
F11D | 2.74
F11V | 2.01
E18W | 2.25
E18L | 2.19
E18D | 2.37
E18N | 2.12
E18C | 2.79
E18S | 2.18
E18G | 1.48
P3D | 2.75
P3W | 2.3
P3A | 2.23
P3L | 1.92
P3C | 1.3
F21I | 1.74

Variant | protein stability index
F21S | 1.65
F21R | 1.75
F21Q | 1.98
F21Y | 2.27
I15H | 2.4
I15W | 2.66
I15M | 2.24
I2L | 2.96
I2Y | 3.38
I2G | 2.62
I2A | 3.29
D24C | 1.75
D10Q | 2.77
D10M | 1.87
D10T | 2.54
S5C | 1.9
S5M | 1.44
S5L | 1.41
S5H | 1.89
S5W | 1.58
F1Y | 1.63
F1H | 4.22

Variant | protein stability index
F1E | 4.06
F1K | 3.85
N7Q | 2.46
N7G | 2.01
N7C | 2.17
N7H | 3.59
T13G | 2.42
T13S | 1.83
S4Y | 1.94
S4C | 1.39
S4K | 2.29
S4I | 3.25
S4P | 1.8
L12I | 3.01
L12W | 2.85
L12E | 2.2
D19H | 1.54
D19N | 1.57
D19E | 2.32
